Measured values as given in IntAct's records for PubMed 19817875.

B1: Actin nucleation-promoting factor WAS (Homo sapiens), P42768 (parent)
chain: MSGGPMGGRPGGRGAPAVQQNIPSTLLQDHENQRLFEMLGRKCLTLATAVVQLYLALPPGAEHWTKEHCGAVCFVKDNPQKSYFIRLYGLQAGRLLWEQELYSQLVYSTPTPFFHTFAGDDCQAGLNFADEDEAQAFRALVQEKIQKRNQRQSGDRRQLPPPPTPANEERRGGLPPLPLHPGGDQGGPPVGPLSLGLATVDIQNPDITSSRYRGLPAPGPSPADKKRSGKKKISKADIGAPSGFKHVSHVGWDPQNGFDVNNLDPDLRSLFSRAGISEAQLTDAETSKLIYDFIEDQGGLEAVRQEMRRQEPLPPPPPPSRGGNQLPRPPIVGGNKGRSGPLPPVPLGIAPPPPTPRGPPPPGRGGPPPPPPPATGRSGPLPPPPPGAGGPPMPPPPPPPPPPPSSGNGPAPPPLPPALVPAGGLAPGGGRGALLDQIRQGIQLNKTPGAPESSALQPPPQSSEGLVGALMHVMQKRSRAIHSSDEGEDQAGDEDEDDEWDD

Key:
Details in all cases: with wipf1_human WIPF1, O43516
wipf1_human WIPF1, O43516, sequence (O43516 whole entry): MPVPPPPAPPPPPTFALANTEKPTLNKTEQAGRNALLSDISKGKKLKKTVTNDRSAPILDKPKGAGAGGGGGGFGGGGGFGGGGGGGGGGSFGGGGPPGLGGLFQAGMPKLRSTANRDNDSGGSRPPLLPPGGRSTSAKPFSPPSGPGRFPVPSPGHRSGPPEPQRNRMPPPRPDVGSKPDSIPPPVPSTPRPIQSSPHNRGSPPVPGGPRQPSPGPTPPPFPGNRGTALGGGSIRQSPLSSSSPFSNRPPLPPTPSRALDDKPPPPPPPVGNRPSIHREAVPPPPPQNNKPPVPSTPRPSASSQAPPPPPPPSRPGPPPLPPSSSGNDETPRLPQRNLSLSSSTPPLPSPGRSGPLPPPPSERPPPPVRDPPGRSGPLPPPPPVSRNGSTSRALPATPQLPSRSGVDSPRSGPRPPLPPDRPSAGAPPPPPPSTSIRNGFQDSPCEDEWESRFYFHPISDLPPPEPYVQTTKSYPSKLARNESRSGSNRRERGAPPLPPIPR

[1] = variants of: B1
[2] = variants of: B1; remark: listed apart in the source
[3] = variants of: B1; remark: listed apart in the source

Variant	effect of a mutation on the interaction [1]	effect of a mutation on the interaction [2]	effect of a mutation on the interaction [3]
MSGGPMGGRPGGRGAPAVQQNIPSTLLQDHKNQRLFEMLGRKCLTLATAVVQLYLALPPGAEHWTKEHCGAVCFVKDNPQKSYFIRLYGLQAGRLLWEQELYSQLVYSTPTPFFHTFAGDDCQAGLNFADEDEAQAFRALVQEKIQKRNQRQSGDRRQLPPPPTPANEERRGGLPPLPLHPGGDQGGPPVGPLSLGLATVDIQNPDITSSRYRGLPAPGPSPADKKRSGKKKISKADIGAPSGFKHVSHVGWDPQNGFDVNNLDPDLRSLFSRAGISEAQLTDAETSKLIYDFIEDQGGLEAVRQEMRRQEPLPPPPPPSRGGNQLPRPPIVGGNKGRSGPLPPVPLGIAPPPPTPRGPPPPGRGGPPPPPPPATGRSGPLPPPPPGAGGPPMPPPPPPPPPPPSSGNGPAPPPLPPALVPAGGLAPGGGRGALLDQIRQGIQLNKTPGAPESSALQPPPQSSEGLVGALMHVMQKRSRAIHSSDEGEDQAGDEDEDDEWDD [E31K]	with no effect	disrupting interaction strength	
MSGGPMGGRPGGRGAPAVQQNIPSTLLQDHENQRLFEMLGRKCLTLATAVVQLYLALPPGAEHWTKEHCGAVYFVKDNPQKSYFIRLYGLQAGRLLWEQELYSQLVYSTPTPFFHTFAGDDCQAGLNFADEDEAQAFRALVQEKIQKRNQRQSGDRRQLPPPPTPANEERRGGLPPLPLHPGGDQGGPPVGPLSLGLATVDIQNPDITSSRYRGLPAPGPSPADKKRSGKKKISKADIGAPSGFKHVSHVGWDPQNGFDVNNLDPDLRSLFSRAGISEAQLTDAETSKLIYDFIEDQGGLEAVRQEMRRQEPLPPPPPPSRGGNQLPRPPIVGGNKGRSGPLPPVPLGIAPPPPTPRGPPPPGRGGPPPPPPPATGRSGPLPPPPPGAGGPPMPPPPPPPPPPPSSGNGPAPPPLPPALVPAGGLAPGGGRGALLDQIRQGIQLNKTPGAPESSALQPPPQSSEGLVGALMHVMQKRSRAIHSSDEGEDQAGDEDEDDEWDD [C73Y]	disrupting interaction strength		decreasing interaction strength
MSGGPMGGRPGGRGAPAVQQNIPSTLLQDHENQRLFEMLGRKCLTPATAVVQLYLALPPGAEHWTKEHCGAVCFVKDNPQKSYFIRLYGLQAGRLLWEQELYSQLVYSTPTPFFHTFAGDDCQAGLNFADEDEAQAFRALVQEKIQKRNQRQSGDRRQLPPPPTPANEERRGGLPPLPLHPGGDQGGPPVGPLSLGLATVDIQNPDITSSRYRGLPAPGPSPADKKRSGKKKISKADIGAPSGFKHVSHVGWDPQNGFDVNNLDPDLRSLFSRAGISEAQLTDAETSKLIYDFIEDQGGLEAVRQEMRRQEPLPPPPPPSRGGNQLPRPPIVGGNKGRSGPLPPVPLGIAPPPPTPRGPPPPGRGGPPPPPPPATGRSGPLPPPPPGAGGPPMPPPPPPPPPPPSSGNGPAPPPLPPALVPAGGLAPGGGRGALLDQIRQGIQLNKTPGAPESSALQPPPQSSEGLVGALMHVMQKRSRAIHSSDEGEDQAGDEDEDDEWDD [L46P]	disrupting interaction strength		decreasing interaction strength
MSGGPMGGRPGGRGAPAVQQNIPSTLLQDHENQRLFEMLGRKCLTLATAVVQLYLALPPGAEHWTKEHCGAVCFVKDNPQKSYFIRLYGLQAGRLLWEQELYSQLVYSTPTPFFHTFAGDDCQAGLNFADEDETQAFRALVQEKIQKRNQRQSGDRRQLPPPPTPANEERRGGLPPLPLHPGGDQGGPPVGPLSLGLATVDIQNPDITSSRYRGLPAPGPSPADKKRSGKKKISKADIGAPSGFKHVSHVGWDPQNGFDVNNLDPDLRSLFSRAGISEAQLTDAETSKLIYDFIEDQGGLEAVRQEMRRQEPLPPPPPPSRGGNQLPRPPIVGGNKGRSGPLPPVPLGIAPPPPTPRGPPPPGRGGPPPPPPPATGRSGPLPPPPPGAGGPPMPPPPPPPPPPPSSGNGPAPPPLPPALVPAGGLAPGGGRGALLDQIRQGIQLNKTPGAPESSALQPPPQSSEGLVGALMHVMQKRSRAIHSSDEGEDQAGDEDEDDEWDD [A134T]	disrupting interaction strength		decreasing interaction strength

Results, then the variant that gave them:

effect of a mutation on the interaction [1]	effect of a mutation on the interaction [2]	effect of a mutation on the interaction [3]	Variant
with no effect	disrupting interaction strength	decreasing interaction strength	MSGGPMGGRPGGRGAPAVQQNIPSTLLQDHENQRLFEMLGRKCLTLATAVVQLYLALPPGAEHWTKEHCGAVCFVKDNPQKSYFTRLYGLQAGRLLWEQELYSQLVYSTPTPFFHTFAGDDCQAGLNFADEDEAQAFRALVQEKIQKRNQRQSGDRRQLPPPPTPANEERRGGLPPLPLHPGGDQGGPPVGPLSLGLATVDIQNPDITSSRYRGLPAPGPSPADKKRSGKKKISKADIGAPSGFKHVSHVGWDPQNGFDVNNLDPDLRSLFSRAGISEAQLTDAETSKLIYDFIEDQGGLEAVRQEMRRQEPLPPPPPPSRGGNQLPRPPIVGGNKGRSGPLPPVPLGIAPPPPTPRGPPPPGRGGPPPPPPPATGRSGPLPPPPPGAGGPPMPPPPPPPPPPPSSGNGPAPPPLPPALVPAGGLAPGGGRGALLDQIRQGIQLNKTPGAPESSALQPPPQSSEGLVGALMHVMQKRSRAIHSSDEGEDQAGDEDEDDEWDD [I85T]
with no effect	disrupting interaction strength	decreasing interaction strength	MSGGPMGGRPGGRGAPAVQQNIPSTLLQDHENQRHFEMLGRKCLTLATAVVQLYLALPPGAEHWTKEHCGAVCFVKDNPQKSYFIRLYGLQAGRLLWEQELYSQLVYSTPTPFFHTFAGDDCQAGLNFADEDEAQAFRALVQEKIQKRNQRQSGDRRQLPPPPTPANEERRGGLPPLPLHPGGDQGGPPVGPLSLGLATVDIQNPDITSSRYRGLPAPGPSPADKKRSGKKKISKADIGAPSGFKHVSHVGWDPQNGFDVNNLDPDLRSLFSRAGISEAQLTDAETSKLIYDFIEDQGGLEAVRQEMRRQEPLPPPPPPSRGGNQLPRPPIVGGNKGRSGPLPPVPLGIAPPPPTPRGPPPPGRGGPPPPPPPATGRSGPLPPPPPGAGGPPMPPPPPPPPPPPSSGNGPAPPPLPPALVPAGGLAPGGGRGALLDQIRQGIQLNKTPGAPESSALQPPPQSSEGLVGALMHVMQKRSRAIHSSDEGEDQAGDEDEDDEWDD [L35H]
